B1: Nucleosome-remodeling factor subunit BPTF, residues 2862 to 2918; numbered along this chain, Q12830 (parent)
chain: TKKDTKLYCICKTPYDESKFYIGCDRCQNWYHGRCVGILQSEAELIDEYVCPQCQST

Variants of: B1
Test: abundance fitness (aPCA) (normalised: wild type 0, dead -1); higher = more abundant; growth selection in yeast, the domain comes from the species named
Conditions: Homo sapiens

Abundance fitness, by site and new letter:
S41: R 0.019, K -0.015, Y -0.132, M -0.137, D -0.071, L -0.198, C -0.213, N 0.038, P -0.106, T 0.069, F -0.173, E 0.017, H -0.152, W -0.207, A -0.146, I -0.507
V36: A -0.565, S -0.669, L -0.123, F -0.832, W -0.927, K -0.531, G -0.863, P -0.983, Q -0.862, N -0.393, H -0.785, M -0.381, Y -0.957, I -0.109, D -0.801, C -0.572
Q53: K -0.122, L -0.047, P -0.054, Y -0.266, G 0.028, S -0.092, C -0.16, E -0.009, W -0.25, R -0.078, N 0.078, A -0.052, D 0.037, T 0.054, H -0.017, I 0.09, M -0.139
V50: E 0.132, S -0.167, Y -0.357, T 0.037, R -0.145, G -0.672, C -0.228, K -0.102, P -0.558, A -0.252, L 0.015, F -0.099, W -0.156, N -0.203, D -0.268, M -0.159, Q -0.191, H -0.288, I -0.013
Q40: M -0.244, C -0.12, T -0.127, F -0.201, K -0.214, Y -0.306, W -0.371, D -0.126, I -0.378, G -0.062, L -0.282, N -0.296, A -0.072, V -0.19, S -0.049, H 0.002

From the Human Domainome abundance scans (Beltran et al. 2025)
